This is an account of results in patent publication US20260097113A1 (Pfizer, published 2026).

Experiment [1] has as its target RSV A + RSV B bivalent composition (RSV subtype A; RSV subtype B). Briefly: AM14 Fab titration by SEC; composition of Table 14; pre-lyo composition.
Experiment [2] shares this target. The experiment is described as follows: AM14 Fab titration by SEC; Low-Fast cycle; 1 M 2-8°C (second value).
Experiment [3] shares this target. Briefly: AM14 Fab titration by SEC; Low-Fast cycle; 8 M 40°C. (In general: SEC sorts molecules by how far they enter the pores of the column.)
Experiment [4] has the same target. The experiment is described as follows: AM14 Fab titration by SEC; High-Slow 2 cycle; T0 (second value).
For experiment [5] the target is unchanged. The experiment is described as follows: AM14 Fab titration by SEC; Low-Fast cycle; 1 M 40°C (second value).
Experiment [6] has the same target. Briefly: AM14 Fab titration by SEC; High-Slow 2 cycle; 3 M 25°C.
Experiment [7] addresses T1, RSV F protein of subtype A comprising a polypeptide of SEQ ID NO: 1 and a polypeptide of SEQ ID NO: 2 (RSV subtype A, UniProt P11209 137-513; P03420 26-109).
T1 construct: Stabilized prefusion F trimer made of three F2-F1 heterodimers; Produced recombinantly in CHO cells; also called RSV A; RSVA
T1 chain 1: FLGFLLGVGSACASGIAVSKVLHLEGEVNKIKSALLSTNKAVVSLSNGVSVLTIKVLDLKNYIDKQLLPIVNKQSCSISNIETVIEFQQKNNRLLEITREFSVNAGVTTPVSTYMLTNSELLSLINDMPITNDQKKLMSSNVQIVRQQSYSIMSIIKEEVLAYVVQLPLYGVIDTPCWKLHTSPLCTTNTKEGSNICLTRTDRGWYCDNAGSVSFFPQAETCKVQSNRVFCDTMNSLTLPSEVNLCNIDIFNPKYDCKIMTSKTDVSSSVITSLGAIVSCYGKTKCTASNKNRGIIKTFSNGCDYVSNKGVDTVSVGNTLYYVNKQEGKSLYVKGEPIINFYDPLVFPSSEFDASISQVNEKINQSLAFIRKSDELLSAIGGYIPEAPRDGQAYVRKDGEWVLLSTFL
T1 chain 2: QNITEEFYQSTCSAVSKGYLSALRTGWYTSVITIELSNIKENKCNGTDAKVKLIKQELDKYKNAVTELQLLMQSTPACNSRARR
Briefly: AM14 ELISA; F11 (pH 7, 50 mM NaCl, 9.0% sucrose); 2 wk 25°C. (In general: In an ELISA, binding on a coated surface is turned into a signal by an enzyme label.)

Experiment [8] deals with T1, RSV F protein of subtype A comprising a …. The experiment is described as follows: AM14 ELISA; F9 (pH 8, 50 mM NaCl, 4.5% sucrose); 1 wk 5°C.
The target of experiment [9] is T2, RSV F protein comprising a polypeptide of SEQ ID NO: 3 and a polypeptide of SEQ ID NO: 4 (RSV subtype B, UniProt O36634 137-513; O36634 26-109).
T2 construct: also called RSV B; RSVB
T2 chain 1: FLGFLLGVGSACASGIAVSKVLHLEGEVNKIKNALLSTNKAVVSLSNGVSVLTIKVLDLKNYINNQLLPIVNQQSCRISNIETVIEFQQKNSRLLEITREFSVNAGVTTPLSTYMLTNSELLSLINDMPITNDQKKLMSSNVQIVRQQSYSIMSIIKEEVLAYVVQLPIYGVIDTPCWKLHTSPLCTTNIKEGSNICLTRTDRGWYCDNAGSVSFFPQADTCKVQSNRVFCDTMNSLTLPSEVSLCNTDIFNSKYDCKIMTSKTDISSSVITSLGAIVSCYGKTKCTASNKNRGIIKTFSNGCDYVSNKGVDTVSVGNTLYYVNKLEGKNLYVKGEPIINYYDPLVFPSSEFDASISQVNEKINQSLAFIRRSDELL
T2 chain 2: T1 chain 2 with K17R, L20F, N42T, A49T, S74N, S80N
The experiment is described as follows: AM14 prefusion assay relative to standard; RSV B 480 µg/mL, 2% sucrose + 4% mannitol; pre-lyo.

The target of experiment [10] is T1, RSV F protein of subtype A comprising a …. The experiment is described as follows: AM14 ELISA; F16 (pH 6, 0 mM NaCl, 0% sucrose); 1 wk 25°C.
Experiment [11] shares this target. The experiment is described as follows: AM14 ELISA; F11 (pH 7, 50 mM NaCl, 9.0% sucrose); 1 wk 5°C.
For experiment [12] the target is unchanged. Briefly: AM14 ELISA; F9 (pH 8, 50 mM NaCl, 4.5% sucrose); 1 wk 25°C.
Experiment [13] has the same target. Briefly: AM14 ELISA; F6 (pH 7, 0 mM NaCl, 4.5% sucrose); 1 wk 5°C.
For experiment [14] the target is unchanged. The experiment is described as follows: AM14 ELISA; F17 (pH 7, 50 mM NaCl, 4.5% trehalose); 2 wk 25°C.
Experiment [15] shares this target. The experiment is described as follows: AM14 ELISA; F9 (pH 8, 50 mM NaCl, 4.5% sucrose); T0.

Positions count from the first letter of the chain named.

Regarding AM14 Fab, the Prefusion Content (%) was determined as 77% in experiment [1]; 53% in experiment [2]; 63% in experiment [3]; 73% in experiment [4]; 70% in [5]; 74% in experiment [6].

B1: AM14 (trimeric prefusion specific antibody of the AM14 ELISA) (antibody, V domains shown)
VH: EVQLVESGGGVVQPGRSLRLSCAASGFSFSHYAMHWVRQAPGKGLEWVAVISYDGENTYYADSVKGRFSISRDNSKNTVSLQMNSLRPEDTALYYCARDRIVDDYYYYGMDVWGQGATVTVSS
VL: DIQMTQSPSSLSASVGDRVTITCQASQDIKKYLNWYHQKPGKVPELLMHDASNLETGVPSRFSGRGSGTDFTLTISSLQPEDIGTYYCQQYDNLPPLTFGGGTKVEIKR
notes: Antibody as used in the AM14 ELISA, detected with an HRP-labeled secondary antibody
B1: the “AM14 prefusion content (%), relative to standard” value was determined as 82% in experiment [7]; 94% in experiment [8]; 90% in [9]; 87% in experiment [10]; 101% in experiment [11]; 84% in experiment [12]. For the same molecule, the “AM14 prefusion content (%), relative to standard” value in experiment [13] is 101%; in [14], 64%; in experiment [15], 94%.
